Publication PMC8443706, “Functionally diverse heteromeric traps for ligands of the transforming growth factor-β superfamily” (Scientific Reports, 2021)

T1: growth differentiation factor 8 (GDF8, or myostatin) (human, UniProt O14793 267-375)
T1 sequence (looked up): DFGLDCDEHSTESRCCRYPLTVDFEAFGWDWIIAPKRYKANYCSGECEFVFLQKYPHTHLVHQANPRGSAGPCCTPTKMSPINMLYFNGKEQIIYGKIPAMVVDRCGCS

T2: GDF11 (human, UniProt O95390 299-407)
T2 sequence (looked up): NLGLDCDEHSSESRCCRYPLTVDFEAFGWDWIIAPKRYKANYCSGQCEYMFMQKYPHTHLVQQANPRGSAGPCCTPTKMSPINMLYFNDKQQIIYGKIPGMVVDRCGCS

T3: BMP9 (human, UniProt Q9UK05 320-429)
T3 sequence (looked up): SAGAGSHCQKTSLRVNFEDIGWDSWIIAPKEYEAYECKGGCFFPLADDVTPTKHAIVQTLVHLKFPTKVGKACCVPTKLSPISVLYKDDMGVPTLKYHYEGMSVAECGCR

T4: BMP10 (human, UniProt O95393 317-424)
T4 sequence (looked up): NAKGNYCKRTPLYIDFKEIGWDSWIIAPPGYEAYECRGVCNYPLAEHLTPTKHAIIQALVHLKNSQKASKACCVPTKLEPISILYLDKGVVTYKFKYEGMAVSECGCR

T5: activin A (human, UniProt P08476 311-426)
T5 sequence (looked up): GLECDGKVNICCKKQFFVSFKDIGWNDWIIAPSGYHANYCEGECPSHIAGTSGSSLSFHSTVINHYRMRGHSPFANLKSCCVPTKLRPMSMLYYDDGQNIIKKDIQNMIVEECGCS

T6: activin B (human, UniProt P09529 293-407)
T6 sequence (looked up): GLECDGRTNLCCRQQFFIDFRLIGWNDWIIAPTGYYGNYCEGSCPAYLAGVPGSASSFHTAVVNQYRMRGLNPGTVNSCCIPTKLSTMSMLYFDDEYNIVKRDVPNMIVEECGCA

T7: BMP7 (human, UniProt P18075 293-431)
T7 construct: source: bought: R&D Systems
T7 sequence (looked up): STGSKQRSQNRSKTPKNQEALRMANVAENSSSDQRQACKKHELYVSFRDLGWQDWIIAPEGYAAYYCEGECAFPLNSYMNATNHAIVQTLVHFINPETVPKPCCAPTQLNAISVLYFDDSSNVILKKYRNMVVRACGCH

T8: BMP6 (human, UniProt P22004 375-513)
T8 construct: source: bought: R&D Systems
T8 sequence (looked up): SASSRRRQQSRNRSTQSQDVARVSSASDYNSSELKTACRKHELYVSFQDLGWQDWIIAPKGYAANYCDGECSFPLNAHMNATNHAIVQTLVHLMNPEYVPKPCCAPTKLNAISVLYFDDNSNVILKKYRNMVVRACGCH

B1: IIB-Fc:IIB-Fc homodimer (human ActRIIB ECD fused to human IgG1 Fc) (Fc fusion, UniProt Q13705-1 19-134, looked up)
chain: SGRGEAETRECIYYNANWELERTNQSGLERCEGEQDKRLHCYASWRNSSGTIELVKKGCWLDDFNCYDRQECVATEENPQVYFCCCEGNFCNERFTHLPEAGGPEVTYEPPPTAPT
notes: activin receptor type IIB (ActRIIB) extracellular domain, human, aa 19-134 of NP_001097.2; Chains linked by disulfide bonds between the Fc domains; a form with murine IgG2a Fc was used only in mice; also called ActRIIB-Fc homodimer; ActRIIB-Fc; not shown: Fc (human IgG1), C-terminal, kept
B2: IIB-Fc:ALK7-Fc heterodimer (human ActRIIB ECD-Fc paired with human ALK7 ECD-Fc) (Fc fusion)
chain 1: B1 chain
chain 2: GLKCVCLLCDSSNFTCQTEGACWASVMLTNGKEQVIKSCVSLPELNAQVFCHSSNNVTKTECCFTDFCNNITLHLPTASPNAPKLGPME
B3: IIB-Fc:ALK3-Fc heterodimer (human ActRIIB ECD-Fc paired with human ALK3 ECD-Fc) (Fc fusion)
chain 1: B1 chain
chain 2: QNLDSMLHGTGMKSDSDQKKSENGVTLAPEDTLPFLKCYCSGHCPDDAINNTCITNGHCFAIIEEDDQGETTLASGCMKYEGSDFQCKDSPKAQLRRTIECCRTNLCNQYLQPTLPPVVIGPFFDGSIR
B4: IIB-Fc:ALK4-Fc heterodimer (human ActRIIB ECD-Fc paired with human ALK4 ECD-Fc) (Fc fusion)
chain 1: B1 chain
chain 2: SGPRGVQALLCACTSCLQANYTCETDGACMVSIFNLDGMEHHVRTCIPKVELVPAGKPFYCLSSEDLRNTHCCYTDYCNRIDLRVPSGHLKEPEHPSMWGPVE
B5: ALK4-Fc:ALK4-Fc homodimer (R&D Systems Cat #808-AR-100) (Fc fusion, human, UniProt P36896-1 24-126, looked up)
chain: B4 chain 2
notes: activin receptor-like kinase 4 (ALK4) extracellular domain, human; Bought product; source: bought: R&D Systems (Cat #808-AR-100); not shown: Fc (human)

Columns and labels:
[1] = biological target: T1, growth differentiation factor 8 (GDF8, …); experiment: cell-based or functional assay
GDF11 [2] = biological target: T2, GDF11; experiment: cell-based or functional assay
BMP9 = biological target: T3, BMP9; experiment: cell-based or functional assay
BMP10 = biological target: T4, BMP10; experiment: cell-based or functional assay
activin A [3] = biological target: T5, activin A; experiment: cell-based or functional assay
activin B = biological target: T6, activin B; experiment: cell-based or functional assay
BMP7 = biological target: T7, BMP7; experiment: SPR; same experiment as a1 (Biacore 8K, 37 °C, receptor dimers captured by anti-human Fc, HBS-EP+ with 350 mM NaCl added and 0.5 mg/mL BSA) but fitted with a bivalent analyte model (bold cells of Table 1); the first binding step is the one considered; conditions: both partners purified
BMP6 = biological target: T8, BMP6; experiment: SPR; Biacore 8K, 37 °C; Fc-fusion receptor dimers captured by anti-human Fc antibody on a CM5 chip (100-150 RU); ligands injected in two-fold dilution series (300 s association, 600 s dissociation); HBS-EP+ supplemented with 350 mM NaCl and 0.5 mg/mL BSA; 1:1 Langmuir model with a term for mass transport; conditions: both partners purified
GDF11 [4] = biological target: T2, GDF11; experiment: as above; conditions: both partners purified
activin A [5] = biological target: T5, activin A; experiment: as above; conditions: both partners purified

| Binder | IC50 of the trap for inhibition of ligand-induced SMAD2/3 (CAGA12) luciferase reporter signalling in A204 cells (ligand with the cells' receptors) [1] | IC50 of the trap for inhibition of ligand-induced SMAD2/3 (CAGA12) luciferase reporter signalling in A204 cells (ligand with the cells' receptors) (GDF11 [2]) | IC50 of the trap for inhibition of ligand-induced SMAD1/5/8 (BRE) luciferase reporter signalling in T98G cells (ligand with the cells' receptors) (BMP9) | IC50 of the trap for inhibition of ligand-induced SMAD1/5/8 (BRE) luciferase reporter signalling in T98G cells (ligand with the cells' receptors) (BMP10) | IC50 of the trap for inhibition of ligand-induced SMAD2/3 (CAGA12) luciferase reporter signalling in A204 cells (ligand with the cells' receptors) (activin A [3]) | IC50 of the trap for inhibition of ligand-induced SMAD2/3 (CAGA12) luciferase reporter signalling in A204 cells (ligand with the cells' receptors) (activin B) | Kd (BMP7) | koff (BMP7) | kon (BMP7) | Kd (BMP6) | koff (BMP6) | kon (BMP6) | Kd (GDF11 [4]) | koff (GDF11 [4]) | kon (GDF11 [4]) | Kd (activin A [5]) | koff (activin A [5]) | kon (activin A [5]) |
| --- | --- | --- | --- | --- | --- | --- | --- | --- | --- | --- | --- | --- | --- | --- | --- | --- | --- | --- |
| B1 | 0.76 nM | 0.09 nM | 0.57 nM | 0.03 nM | 0.11 nM | 0.06 nM | > 10 nM | > 0.01 s⁻¹ | 800000 M⁻¹ s⁻¹ | 0.348 nM | 0.00273 s⁻¹ | 7.8e+06 M⁻¹ s⁻¹ | – | – | – | – | – | – |
| B2 | 9.15 nM | 2.34 nM | 31 nM | 2.01 nM | 2.86 nM | 0.26 nM | – | – | – | – | – | – | – | – | – | – | – | – |
| B3 | 10.8 nM | 2.42 nM | 23.4 nM | 1.1 nM | 2.62 nM | 1.65 nM | – | – | – | – | – | – | – | – | – | – | – | – |
| B4 | 2.04 nM | 0.34 nM | 8.47 nM | 0.7 nM | 0.19 nM | 0.16 nM | – | – | – | – | – | – | – | – | – | – | – | – |
| B5 | – | – | – | – | > 100 nM | – | – | – | – | – | – | – | > 10 nM | > 0.01 s⁻¹ | 500000 M⁻¹ s⁻¹ | > 10 nM | > 0.01 s⁻¹ | 200000 M⁻¹ s⁻¹ |
